Results taken from PMC12575786 (Nature communications, 2025).
Where a chain is given by its changes, count along the chain named. In names and notes the source's numbering stands.

What was measured:
[1] = target: the molecule itself; assay: thioflavin T fluorescence
[2] = target: the molecule itself; assay: solution NMR, decay of monomer signals over time

B1: human RIPK1 RHIM-harboring domain (residues 496-583), wild type (domain or fragment, UniProt Q13546 496-583, looked up)
chain: HMPSLHNIPVPETNYLGNTPTMPFSSLPPTDESIKYTIYNSTGIQIGAYNYMEIGGTSSSLLDSTNTNFKEEPAAKYQAIFDNTTSLT
Question: Does B1 bind [1]?
Answer: Result: binds

B2: human RIPK1 RHIM-harboring domain (residues 496-583), N545D variant (domain or fragment, UniProt Q13546 496-583, looked up)
chain: B1 chain with N50D
Question: Does B2 bind [2]?
Answer: Result: binds
